According to patent US6780986 (UNIVERSITY OF VERMONT AND STATE AGRICULTURAL COLLEGE, dated 2004):

Legend:
[1] = target: the molecule itself; assay: DNase I footprinting on the DHFR-E probe (self-association on DNA, inferred)
Excerpt: Materials and Methods: Probe DHFR-E-top was generated by digesting pUC/E with Bam HI, end-labeling by Klenow fill-in in the presence of [α-^32P]-dATP, and digesting with Bgl II. Probe DHFR-E-bottom was generated by digesting pUC/E with Bgl II, end-labeling by Klenow fill-in in the presence of [α-^32P]-dATP, and digesting with Bam HI. Footprinting probes were purified by gel electrophoresis and Geneclean (Bio 101), and resuspended in distilled water at a specific activity of 50,000 dpm/ul. Binding reactions (50 ul) that contained 50,000 dpm of labeled probe were assembled as for gel mobility shift assays. After incubation at 37° C. for 20 min and on ice for 15 min, one volume of a 5 mM CaCl_2, 10 mM MgCl2 solution was added for one minute at room temperature, followed by the addition of 0.02 units of DNase I for 1 min. Footprinting reactions were stopped with the addition of 90 ul prewarmed stop buffer (200 mM NaCl, 30 mM EDTA, 1% SDS), extracted with phenol, ethanol precipitated, and resuspended in sequencing dye buffer. Samples were resolved by electrophoresis at 65 W for 1.5 to 3.0 hours on denaturing 8% polyacrylamide gels. The gel was dried, exposed to Kodak XAR film at –80° C., and signals were detected by autoradiography.
Fusion proteins containing hand Z2 induced multiple hypersensitive sites on the top strand of DHFR-E, including the prominent site at position 3483.

[2] = target: the molecule itself; assay: gel shift multimers on DNA probe (self-association on DNA)

B1: GST-Z23 (GST fused to hands Z2 and Z3 of RIP60) (other)
chain: PRPGGDAVDRPFQCACCGKRFRHKPNLIAHRRVHTGERPHQCPECGKRFTNKPYLTSHRRIHTGEKPYPCKECGRRFRHKPNLLSHSKIHKRSEGSAQAAPGPGSPQLPAGPQESAAEPTPAVPLKPAQEPPPGAPPEHPQDPIEAPPSLYSCDDCGRSFRLERFLRAHQRHDTGERPFTCAECGKNFGKKTHLVAHSPVHSGERPFACEECGRRFSQGSHLAAHRPDHAPDRPFVCPDCGKAFRHKPYLARHRRIHTGEKPYVCPDCGKAFSQKSNLVSHRRIHTGERPYACPDCDRSFSQKSNLITHRKSHIRDGAFCCAICGQTFDDEERLLAHQKKHDV
notes: The start of the range is derived from the domain limits; nucleotide 682 would give residue 228; also called pCH61 product; not shown: glutathione-S-transferase (GST) purification tag from vector pGEX-2T
binding result [1]: binds

B2: GST-Z2 (GST fused to the Z2 domain of RIP60, zinc fingers 6-8 plus 37 amino acids of the proline rich region) (other)
chain: GGDAVDRPFQCACCGKRFRHKPNLIAHRRVHTGERPHQCPECGKRFTNKPYLTSHRRIHTGEKPYPCKECGRRFRHKPNLLSHSKIHKRSEGSAQAAPGPGSPQLPAGPQESAAEPTPAVPLKPAQ
notes: Expressed in E. coli BL21 and purified on glutathione beads; also called GST-Z2(P12); GST-Z2-P12; not shown: glutathione-S-transferase (GST) purification tag, 26 kD, at the amino terminus; from vector pGEX-2T
binding result [2]: binds
